Measurements: publication PMC6392013 (Methods in molecular biology (Clifton, N.J.), 2012)

Target: ubiquitin (UniProt P0CG48 1-76)
Experiment: NMR intermolecular NOESY

B1: S5a (196–306) (domain or fragment, UniProt P55036 196-306, looked up)
chain: MLGLGASDFEFGVDPSADPELALALRVSMEEQRQRQEEEARRAAAASAAEAGIATTGTEDSDDALLKMTISQQEFGRTGLPDLSSMTEEEQIAYAMQMSLQGAEFGQAESA
binding result: binds
